Experiment [1] deals with recombinant human histone octamer (human) (UniProt P0C0S8). Put plainly: SEC; histone chaperone assay: MBP-PELP1 variant and histone octamer mixed at 1:1 or 2:1 in >1.2 M NaCl, dialysed stepwise to 0.3 M NaCl, 10 mM Hepes pH 7.5, 4°C; S200 10/300 gel filtration in the low-salt buffer; SDS-PAGE of fractions. In general terms: Size exclusion chromatography separates by hydrodynamic size, large species first.

The target in experiment [2] is T1, exogenous rixosome subcomplex (PELP1, TEX10, WDR18, and SENP3) purified by GFP-TEX10 wild type (human, UniProt Q9NXF1 1-929; Q8IZL8 1-1130; Q9BV38 1-432; Q9H4L4 1-574).
T1 construct: human TEX10, wild type, bait of the subcomplex; human PELP1, exogenous; human WDR18, exogenous; human SENP3, exogenous; copy numbers in this preparation are not measured; also called immobilized TEX10 rixosome subcomplexes; TEX10 subcomplexes; not shown: GFP, N-terminal, kept; copies: + + +
The experiment in a line: pull-down; GFP-TEX10 rixosome subcomplexes affinity purified from HEK293FT and kept on anti-GFP Sepharose (ATP and low-salt washes); incubated with recombinant ncPRC1.4 (0.177 mg/ml) in 0.2 ml low-salt buffer (50 mM Hepes pH 7.5, 200 mM NaCl, 5 mM MgCl2, 10% glycerol), 1 hour, 4°C; Western blot. The note with it: both partners purified.

Experiment [3] concerns the target T2, MBP-SENP3^(311–574 C532S), fixed-arm MBP fusion of the SENP3 catalytic domain (human, UniProt Q9H4L4 311-574, C532S).
T2 construct: human SENP3 catalytic domain with the three-helix bundle, Glu311-Val574, catalytic-dead C532S; In the PDB model MBP residues are labeled 1 to 370 and SENP3 residues 1311 to 1574; also called MBP(wt)-SENP3; pMALX(wt)-SENP3 (Glu311-Val574/C532S); source: E. coli Rosetta2 (DE3), purified (amylose resin, Superdex200 SEC); not shown: MBP (fixed-arm fusion, pMALX(wt)), N-terminal, kept
The experiment in a line: crystal structure; MBP-SENP3 (311-574, C532S) with 1.5x molar excess of sPELP1 peptide; sitting drop, 0.085 to 0.1 M Hepes pH 7.5, 17 to 20% PEG8000, 4°C; 2.93 Å. The following applies: both partners purified.

For experiment [4], the target named is T3, N-terminal 6× His-tagged human SENP3 protease domain (302 to 574aa) (human, UniProt Q9H4L4 302-574).
T3 construct: E. coli codon-optimized gene (Genscript) in pET11a; source: E. coli, purified (His60 Ni resin, S200 gel filtration)
Put plainly: SEC; purified components mixed at equimolar amounts (20 to 80 μM), 4°C for at least 30 min; S200 10/300 analytical column; SDS-PAGE of fractions. The following applies: both partners purified.

Experimental findings from publication PMC12292926, “PELP1 coordinates the modular assembly and enzymatic activity of the rixosome complex” (Science Advances, 2025) are described below.

T1 sequence (Q9NXF1 whole entry, chain 1 of 4): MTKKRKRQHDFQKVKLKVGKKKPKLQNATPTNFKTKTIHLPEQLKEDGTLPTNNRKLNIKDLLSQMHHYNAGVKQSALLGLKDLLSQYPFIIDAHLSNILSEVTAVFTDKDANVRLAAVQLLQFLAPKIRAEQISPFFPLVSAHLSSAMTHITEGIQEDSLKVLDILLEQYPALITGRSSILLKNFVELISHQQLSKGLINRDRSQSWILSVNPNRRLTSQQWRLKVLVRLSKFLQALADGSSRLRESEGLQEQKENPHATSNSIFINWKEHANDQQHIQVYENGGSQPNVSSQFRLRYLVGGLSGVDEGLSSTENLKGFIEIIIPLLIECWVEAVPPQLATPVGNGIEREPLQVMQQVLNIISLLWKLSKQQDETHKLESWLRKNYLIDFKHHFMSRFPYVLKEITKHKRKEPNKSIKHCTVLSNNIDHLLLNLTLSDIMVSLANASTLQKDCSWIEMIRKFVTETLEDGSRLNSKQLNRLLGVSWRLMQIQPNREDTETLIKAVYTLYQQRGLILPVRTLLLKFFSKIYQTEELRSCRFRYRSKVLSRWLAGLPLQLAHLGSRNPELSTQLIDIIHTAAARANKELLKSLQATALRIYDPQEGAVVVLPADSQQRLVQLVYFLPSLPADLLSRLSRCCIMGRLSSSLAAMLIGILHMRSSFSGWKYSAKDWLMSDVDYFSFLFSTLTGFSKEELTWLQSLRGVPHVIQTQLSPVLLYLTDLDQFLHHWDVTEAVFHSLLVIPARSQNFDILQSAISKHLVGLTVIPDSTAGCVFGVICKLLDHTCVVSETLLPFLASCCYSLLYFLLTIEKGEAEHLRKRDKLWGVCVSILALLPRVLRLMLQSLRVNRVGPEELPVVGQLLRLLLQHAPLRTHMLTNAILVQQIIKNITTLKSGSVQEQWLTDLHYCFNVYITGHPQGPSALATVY
T1 sequence (Q8IZL8 whole entry, chain 2 of 4): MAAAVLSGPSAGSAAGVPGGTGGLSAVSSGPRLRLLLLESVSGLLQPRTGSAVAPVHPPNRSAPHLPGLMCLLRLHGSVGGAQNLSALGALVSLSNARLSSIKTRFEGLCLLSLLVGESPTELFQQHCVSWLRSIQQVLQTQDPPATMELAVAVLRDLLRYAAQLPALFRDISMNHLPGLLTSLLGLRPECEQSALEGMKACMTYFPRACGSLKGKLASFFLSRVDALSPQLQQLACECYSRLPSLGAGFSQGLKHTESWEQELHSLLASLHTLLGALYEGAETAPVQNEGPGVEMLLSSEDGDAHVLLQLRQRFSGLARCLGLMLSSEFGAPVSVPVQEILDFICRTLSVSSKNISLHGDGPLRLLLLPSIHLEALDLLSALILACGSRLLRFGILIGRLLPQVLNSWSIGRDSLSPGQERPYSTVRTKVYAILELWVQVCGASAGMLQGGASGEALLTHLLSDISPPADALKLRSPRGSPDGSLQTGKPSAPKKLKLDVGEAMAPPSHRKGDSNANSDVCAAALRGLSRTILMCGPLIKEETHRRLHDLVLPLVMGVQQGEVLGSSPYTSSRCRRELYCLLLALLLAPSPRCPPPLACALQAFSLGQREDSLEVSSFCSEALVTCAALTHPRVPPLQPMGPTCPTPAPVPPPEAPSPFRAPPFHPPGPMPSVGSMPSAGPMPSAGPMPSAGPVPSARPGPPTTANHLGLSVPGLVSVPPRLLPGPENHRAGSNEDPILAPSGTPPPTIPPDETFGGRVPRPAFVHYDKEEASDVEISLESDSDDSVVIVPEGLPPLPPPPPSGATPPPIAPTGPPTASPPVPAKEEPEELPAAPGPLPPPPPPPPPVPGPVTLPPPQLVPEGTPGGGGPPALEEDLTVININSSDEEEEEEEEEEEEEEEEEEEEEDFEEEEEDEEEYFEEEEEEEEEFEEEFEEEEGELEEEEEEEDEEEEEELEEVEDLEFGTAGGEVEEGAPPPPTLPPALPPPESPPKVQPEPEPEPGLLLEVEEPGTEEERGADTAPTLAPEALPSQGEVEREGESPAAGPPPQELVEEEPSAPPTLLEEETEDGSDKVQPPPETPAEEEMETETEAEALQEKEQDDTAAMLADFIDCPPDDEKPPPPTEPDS
T1 sequence (Q9BV38 whole entry, chain 3 of 4): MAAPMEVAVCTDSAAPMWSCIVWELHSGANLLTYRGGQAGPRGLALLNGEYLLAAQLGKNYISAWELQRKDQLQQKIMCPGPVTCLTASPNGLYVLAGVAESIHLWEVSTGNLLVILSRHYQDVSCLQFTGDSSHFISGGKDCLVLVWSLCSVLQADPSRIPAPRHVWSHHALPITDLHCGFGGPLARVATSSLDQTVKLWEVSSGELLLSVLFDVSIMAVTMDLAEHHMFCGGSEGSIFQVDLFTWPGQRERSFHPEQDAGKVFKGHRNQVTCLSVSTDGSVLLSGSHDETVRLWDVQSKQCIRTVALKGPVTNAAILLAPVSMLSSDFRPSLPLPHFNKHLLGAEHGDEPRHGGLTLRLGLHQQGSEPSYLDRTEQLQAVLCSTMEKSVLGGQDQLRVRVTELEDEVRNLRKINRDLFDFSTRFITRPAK
T1 sequence (Q9H4L4 whole entry, chain 4 of 4): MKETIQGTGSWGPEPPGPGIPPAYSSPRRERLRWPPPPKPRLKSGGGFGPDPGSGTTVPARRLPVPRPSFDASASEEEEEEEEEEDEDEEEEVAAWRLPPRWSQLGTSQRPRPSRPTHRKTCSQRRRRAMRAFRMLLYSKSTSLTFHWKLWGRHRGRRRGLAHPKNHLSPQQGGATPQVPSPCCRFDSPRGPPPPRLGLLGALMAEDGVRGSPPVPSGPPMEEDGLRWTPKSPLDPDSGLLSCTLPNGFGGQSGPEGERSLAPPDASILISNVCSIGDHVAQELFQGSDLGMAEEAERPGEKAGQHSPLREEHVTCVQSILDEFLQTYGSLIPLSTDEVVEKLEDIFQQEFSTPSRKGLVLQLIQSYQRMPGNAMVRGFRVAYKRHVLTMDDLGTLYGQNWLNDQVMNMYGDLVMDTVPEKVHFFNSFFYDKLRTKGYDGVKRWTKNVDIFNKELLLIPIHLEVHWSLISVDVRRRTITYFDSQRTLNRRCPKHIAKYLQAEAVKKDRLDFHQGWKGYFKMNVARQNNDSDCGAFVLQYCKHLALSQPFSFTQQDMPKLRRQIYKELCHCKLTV
T3 sequence (Q9H4L4 302-574): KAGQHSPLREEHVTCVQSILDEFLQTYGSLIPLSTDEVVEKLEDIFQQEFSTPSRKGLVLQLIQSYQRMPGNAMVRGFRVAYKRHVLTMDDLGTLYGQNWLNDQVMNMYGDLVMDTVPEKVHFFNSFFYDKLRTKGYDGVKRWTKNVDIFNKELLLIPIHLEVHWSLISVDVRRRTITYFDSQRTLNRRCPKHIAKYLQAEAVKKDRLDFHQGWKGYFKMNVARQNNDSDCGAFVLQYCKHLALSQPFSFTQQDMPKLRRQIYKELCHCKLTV
T2 sequence (Q9H4L4 311-574 C532S): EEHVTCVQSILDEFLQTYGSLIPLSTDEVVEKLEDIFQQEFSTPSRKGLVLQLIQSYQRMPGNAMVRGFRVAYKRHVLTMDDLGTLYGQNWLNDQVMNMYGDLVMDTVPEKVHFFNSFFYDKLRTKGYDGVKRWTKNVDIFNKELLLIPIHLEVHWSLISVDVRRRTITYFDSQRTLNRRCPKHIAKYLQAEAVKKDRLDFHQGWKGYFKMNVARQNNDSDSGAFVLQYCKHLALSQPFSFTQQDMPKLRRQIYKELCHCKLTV

“MBP-PELP1^800–1130 (from UniProt Q8IZL8 800-1130) (domain or fragment)”: the stoichiometry N (copies per histone octamer) in experiment [1] stood at 2.
Turning to “MBP-PELP1^887–966 (from UniProt Q8IZL8 887-966) (domain or fragment)”, in experiment [1], the stoichiometry N (copies per histone octamer) is 2.

B1: recombinant human noncanonical PRC1.4 complex (RING1B-BMI1-RYBP) (complex)
chain 1: MSQAVQTNGTQPLSKTWELSLYELQRTPQEAITDGLEIVVSPRSLHSELMCPICLDMLKNTMTTKECLHRFCADCIITALRSGNKECPTCRKKLVSKRSLRPDPNFDALISKIYPSRDEYEAHQERVLARINKHNNQQALSHSIEEGLKIQAMNRLQRGKKQQIENGSGAEDNGDSSHCSNASTHSNQEAGPSNKRTKTSDDSGLELDNNNAAMAIDPVMDGASEIELVFRPHPTLMEKDDSAQTRYIKTSGNATVDHLSKYLAVRLALEELRSKGESNQMNLDTASEKQYTIYIATASGQFTVLNGSFSLELVSEKYWKVNKPMELYYAPTKEHK
chain 2: MHRTTRIKITELNPHLMCVLCGGYFIDATTIIECLHSFCKTCIVRYLETSKYCPICDVQVHKTRPLLNIRSDKTLQDIVYKLVPGLFKNEMKRRRDFYAAHPSADAANGSNEDRGEVADEDKRIITDDEIISLSIEFFDQNRLDRKVNKDKEKSKEEVNDKRYLRCPAAMTVMHLRKFLRSKMDIPNTFQIDVMYEEEPLKDYYTLMDIAYIYTWRRNGPLPLKYRVRPTCKRMKISHQRDGLTNAGELESDSGSDKANSPAGGIPSTSSCLPSPSTPVQSPHPQFPHISSTMNGTSNSPSGNHQSSFANRPRKSSVNGSSATSSG
chain 3: MTMGDKKSPTRPKRQAKPAADEGFWDCSVCTFRNSAEAFKCSICDVRKGTSTRKPRINSQLVAQQVAQQYATPPPPKKEKKEKVEKQDKEKPEKDKEISPSVTKKNTNKKTKPKSDILKDPPSEANSIQSANATTKTSETNHTSRPRLKNVDRSTAQQLAVTVGNVTVIITDFKEKTRSSSTSSSTVTSSAGSEQQNQSSSGSESTDKGSSRSSTPKGDMSAVNDESF
notes: human RING1B, full length; human BMI1, full length; human RYBP, full length; also called ncPRC1.4; not shown: SUMO-10xHis, N-terminal, cleaved; copies: + +
In the case of B1, the binding result in experiment [2] is “binds”.

B2: sPELP1 peptide (PELP1 residues Ala764-Glu781) (peptide, UniProt Q8IZL8 764-781, looked up)
peptide: AFVHYDKEEASDVEISLE
notes: also called short (s) PELP1; PELP1^SLiM peptide (764 to 781aa); source: synthetic peptide (GenScript)
In the case of B2, the binding result in experiment [3] is recorded as “binds”.

B3: 6×-HIS-MBP-PELP1 761 to 796aa (SENP3 binding motif peptide) (domain or fragment, human, UniProt Q8IZL8 761-796, looked up)
chain: PRPAFVHYDKEEASDVEISLESDSDDSVVIVPEGLP
notes: human PELP1 IDR, residues 761 to 796 with the SLiM; legends and the purification paragraph print 761 to 796aa; also called MBP-PELP1^SLiM; PELP1^SLiM-containing peptide 761 to 796aa; source: E. coli, purified (His60 Ni resin, S200 gel filtration); not shown: MBP, N-terminal, kept
B3: the binding result in experiment [4] is “binds”.
